For one molecule, response (PLA puncta / cell) results are on record in PMC7736794.

The target in the assay is T1, PrimPol (endogenous, OVCAR8), Q96LW4.
T1 chain: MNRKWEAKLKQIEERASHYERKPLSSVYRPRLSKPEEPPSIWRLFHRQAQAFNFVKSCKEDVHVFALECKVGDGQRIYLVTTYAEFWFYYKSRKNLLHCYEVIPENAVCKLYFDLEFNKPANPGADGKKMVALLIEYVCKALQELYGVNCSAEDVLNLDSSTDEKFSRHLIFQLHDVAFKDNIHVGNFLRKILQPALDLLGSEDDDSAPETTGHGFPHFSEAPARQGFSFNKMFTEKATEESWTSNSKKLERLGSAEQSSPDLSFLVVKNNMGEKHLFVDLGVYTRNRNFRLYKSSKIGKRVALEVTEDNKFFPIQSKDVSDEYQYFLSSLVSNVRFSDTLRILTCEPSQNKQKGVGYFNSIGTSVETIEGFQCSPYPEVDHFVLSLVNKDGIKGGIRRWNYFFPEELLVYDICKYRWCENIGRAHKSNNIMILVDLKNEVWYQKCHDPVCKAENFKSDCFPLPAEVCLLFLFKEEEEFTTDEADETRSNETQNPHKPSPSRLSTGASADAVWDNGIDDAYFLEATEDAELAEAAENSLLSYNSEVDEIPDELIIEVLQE
The assay is described as follows: in situ proximity ligation assay (PLA). The conditions noted are these: chain shown with the change, USP36 stably knock-down OVCAR8 cells, read off a plot.

B1: USP36-wild-type (WT), transfected in OVCAR8, Q9P275 K329R; K338R (protein)
chain: MPIVDKLKEALKPGRKDSADDGELGKLLASSAKKVLLQKIEFEPASKSFSYQLEALKSKYVLLNPKTEGASRHKSGDDPPARRQGSEHTYESCGDGVPAPQKVLFPTERLSLRWERVFRVGAGLHNLGNTCFLNATIQCLTYTPPLANYLLSKEHARSCHQGSFCMLCVMQNHIVQAFANSGNAIKPVSFIRDLKKIARHFRFGNQEDAHEFLRYTIDAMQKACLNGCAKLDRQTQATTLVHQIFGGYLRSRVKCSVCKSVSDTYDPYLDVALEIRQAANIVRALELFVKADVLSGENAYMCAKCKKKVPASKRFTIHRTSNVLTLSLRRFANFSGGRITKDVGYPEFLNIRPYMSQNNGDPVMYGLYAVLVHSGYSCHAGHYYCYVKASNGQWYQMNDSLVHSSNVKVVLNQQAYVLFYLRIPGSKKSPEGLISRTGSSSLPGRPSVIPDHSKKNIGNGIISSPLTGKRQDSGTMKKPHTTEEIGVPISRNGSTLGLKSQNGCIPPKLPSGSPSPKLSQTPTHMPTILDDPGKKVKKPAPPQHFSPRTAQGLPGTSNSNSSRSGSQRQGSWDSRDVVLSTSPKLLATATANGHGLKGNDESAGLDRRGSSSSSPEHSASSDSTKAPQTPRSGAAHLCDSQETNCSTAGHSKTPPSGADSKTVKLKSPVLSNTTTEPASTMSPPPAKKLALSAKKASTLWRATGNDLRPPPPSPSSDLTHPMKTSHPVVASTWPVHRARAVSPAPQSSSRLQPPFSPHPTLLSSTPKPPGTSEPRSCSSISTALPQVNEDLVSLPHQLPEASEPPQSPSEKRKKTFVGEPQRLGSETRLPQHIREATAAPHGKRKRKKKKRPEDTAASALQEGQTQRQPGSPMYRREGQAQLPAVRRQEDGTQPQVNGQQVGCVTDGHHASSRKRRRKGAEGLGEEGGLHQDPLRHSCSPMGDGDPEAMEESPRKKKKKKRKQETQRAVEEDGHLKCPRSAKPQDAVVPESSSCAPSANGWCPGDRMGLSQAPPVSWNGERESDVVQELLKYSSDKAYGRKVLTWDGKMSAVSQDAIEDSRQARTETVVDDWDEEFDRGKEKKIKKFKREKRRNFNAFQKLQTRRNFWSVTHPAKAASLSYRR
In the case of B1, the response (PLA puncta / cell) reads like this: (HU (10 mM) for 4 h, parent: est. 17) 15; (untreated (Ctrl), parent: est. 11) 15.
